The values that follow come from PMC12183636, “Ion channel function of polycystin‐2/polycystin‐1 heteromer revealed by structure‐guided mutagenesis” (Febs Letters, 2025).

The assay has as its target T1, polycystin-2 L677A N681A, HA-tagged (human, UniProt Q13563 1-968, L677A | N681A).
T1 sequence (looked up): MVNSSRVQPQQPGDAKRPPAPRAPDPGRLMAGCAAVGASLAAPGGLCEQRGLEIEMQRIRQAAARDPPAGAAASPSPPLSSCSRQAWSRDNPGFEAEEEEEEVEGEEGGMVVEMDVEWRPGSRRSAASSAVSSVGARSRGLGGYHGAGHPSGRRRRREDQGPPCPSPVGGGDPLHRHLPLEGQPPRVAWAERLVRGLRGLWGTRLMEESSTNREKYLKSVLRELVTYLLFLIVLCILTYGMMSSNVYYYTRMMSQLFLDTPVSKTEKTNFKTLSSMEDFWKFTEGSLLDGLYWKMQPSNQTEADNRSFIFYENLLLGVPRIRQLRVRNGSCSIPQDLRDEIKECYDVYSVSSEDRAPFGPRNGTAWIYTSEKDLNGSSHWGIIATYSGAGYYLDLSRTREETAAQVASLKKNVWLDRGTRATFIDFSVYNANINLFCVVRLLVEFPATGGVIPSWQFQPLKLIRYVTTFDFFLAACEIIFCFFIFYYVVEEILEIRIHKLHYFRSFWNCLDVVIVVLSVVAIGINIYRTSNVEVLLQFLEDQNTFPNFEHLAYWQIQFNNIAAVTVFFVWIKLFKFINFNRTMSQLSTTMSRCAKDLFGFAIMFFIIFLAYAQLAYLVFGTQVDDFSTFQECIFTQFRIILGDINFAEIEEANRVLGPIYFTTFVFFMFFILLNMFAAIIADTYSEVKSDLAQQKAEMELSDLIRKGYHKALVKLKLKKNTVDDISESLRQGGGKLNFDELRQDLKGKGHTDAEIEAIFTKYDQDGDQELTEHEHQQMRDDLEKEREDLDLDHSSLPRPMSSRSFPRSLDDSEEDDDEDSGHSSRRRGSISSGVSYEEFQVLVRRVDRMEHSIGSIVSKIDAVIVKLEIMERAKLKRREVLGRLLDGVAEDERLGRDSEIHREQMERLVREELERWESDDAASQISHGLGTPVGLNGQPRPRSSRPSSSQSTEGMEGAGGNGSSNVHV
In words: cell-based or functional assay.

B1: C-terminal fragment of polycystin-1 R4100A R4107A H4111A (PC1-CTF AAA), V5-tagged (domain or fragment, human, UniProt P98161 3049-4303, looked up)
chain: TAFGASLFVPPSHVRFVFPEPTADVNYIVMLTCAVCLVTYMVMAAILHKLDQLDASRGRAIPFCGQRGRFKYEILVKTGWGRGSGTTAHVGIMLYGVDSRSGHRHLDGDRAFHRNSLDIFRIATPHSLGSVWKIRVWHDNKGLSPAWFLQHVIVRDLQTARSAFFLVNDWLSVETEANGGLVEKEVLAASDAALLRFRRLLVAELQRGFFDKHIWLSIWDRPPRSRFTRIQRATCCVLLICLFLGANAVWYGAVGDSAYSTGHVSRLSPLSVDTVAVGLVSSVVVYPVYLAILFLFRMSRSKVAGSPSPTPAGQQVLDIDSCLDSSVLDSSFLTFSGLHAEQAFVGQMKSDLFLDDSKSLVCWPSGEGTLSWPDLLSDPSIVGSNLRQLARGQAGHGLGPEEDGFSLASPYSPAKSFSASDEDLIQQVLAEGVSSPAPTQDTHMETDLLSSLSSTPGEKTETLALQRLGELGPPSPGLNWEQPQAARLSRTGLVEGLRKRLLPAWCASLAHGLSLLLVAVAVAVSGWVGASFPPGVSVAWLLSSSASFLASFLGWEPLKVLLEALYFSLVAKRLHPDEDDTLVESPAVTPVSARVPRVRPPHGFALFLAKEEARKVKRLHGMLRSLLVYMLFLLVTLLASYGDASCHGHAYRLQSAIKQELHSRAFLAITRSEELWPWMAHVLLPYVHGNQSSPELGPPRLRQVRLQEALYPDPPGPRVHTCSAAGGFSTSDYDVGWESPHNGSGTWAYSAPDLLGAWSWGSCAVYDSGGYVQELGLSLEESRDRLRFLQLHNWLDNRSRAVFLELTRYSPAVGLHAAVTLRLEFPAAGRALAALSVRPFALRRLSAGLSLPLLTSVCLLLFAVHFAVAEARTWHREGRWRVLRLGAWARWLLVALTAATALVRLAQLGAADRQWTRFVRGRPRRFTSFDQVAQLSSAARGLAASLLFLLLVKAAQQLRFVRQWSVFGKTLCRALPELLGVTLGLVVLGVAYAQLAILLVSSCVDSLWSVAQALLVLCPGTGLSTLCPAESWHLSPLLCVGLWALRLWGALALGAVILAWRYAALRGELYRPAWEPQDYEMVELFLRRLRLWMGLSKVKEFRHKVRFEGMEPLPSRSSRGSKVSPDVPPPSAGSDASHPSTSSSQLDGLSVSLGRLGTRCEPEPSRLQAVFEALLTQFDRLNQATEDVYQLEQQLHSLQGRRSSRAPAGSSRGPSPGLRPALPSRLARASRGVDLATGPSRTPLRAKNKVHPSST
As to B1, the “PC2/PC1 molar ratio of injected cRNA (2.5 pmol PC2 AA, 0.77 pmol PC1-CTF AAA) at which the shift of the reversal potential saturated” value was 3.2 PC2 per PC1 (molar ratio of cRNA).
